For the assay, the target named is CgYps1 (C. glabrata (endogenous in derivatives of strain BG2)). Briefly: co-IP; precleared lysates (6 mg) incubated with anti-CgYps1 antibody-conjugated beads for 12 h at 4°C; blots with anti-CgYps1 and anti-CgPst2; cells untreated or treated with menadione (90 μM for 90 min).

The values that follow come from PMC7943015.

Turning to “CgPst2 (from UniProt Q6FM13 1-198) (natural protein)”, the amount of CgPst2 co-precipitated in MD-treated against untreated cells stood at 40 % lower.
